According to PMC4428629, “The Structure of an NDR/LATS Kinase–Mob Complex Reveals a Novel Kinase–Coactivator System and Substrate Docking Mechanism” (PLoS Biology, 2015):
Residues, ends and D or L forms follow the SMILES beside them. No end group written: not given here. carboxyfluorescein = carboxyfluorescein label

Assays:
[1] = test system: Cbk1–Mob2; experiment: In vitro pulldown of Cbk1–Mob2; format: binding, Saccharomyces cerevisiae; conditions: in vitro binding (Figs 4B, S5A, S5E)
Method: Cbk1 substrates containing the docking motifs or substrate sites were bacterially expressed as MBP or GST fusions. For pulldown assays, MBP-fusion lysates were incubated with amylose resin (New England Biolabs) on ice for 15 min, followed by washing with PBS (137 mM NaCl, 2.7 mM KCl, 4.3 mM Na2HPO4, 1.4 mM KH2PO4 [pH 7.3]). GST fusions were purified on glutathione Sepharose beads followed by dialysis into Cbk1 buffer.
MBP fusions were incubated on bead with 1 μM purified Cbk1 on ice for 15 min. Samples were washed 3× with PBS (transferred to fresh tube on last wash), resuspended in SDS-PAGE buffer, and separated by SDS-PAGE. Samples were directly visualized with GelCode Blue (Pierce) or transferred to PVDF membrane for immunoblotting. Cbk1 was detected using His or pS570 primary antibodies. For experiments detected using α-pS570, antibody signal with pure protein was analyzed to control for lot-dependent variations in expression as well as variations between Cbk1 mutants (no variations detected).

[2] = target: T1, Cbk1^251-756-Mob2 (Saccharomyces cerevisiae, UniProt P43563+P53894); experiment: FP direct titration, Cbk1^251-756-Mob2 (WT); format: binding; conditions: CF-labeled peptide 20 nM, Tris pH 8.0, triplicate, read-out: peptide binding affinity (table in Fig 5C)
T1 construct: His6-Cbk1^251–756 was co-expressed with GST-Mob2 (full length or 45–287); His6 (N); made in house
T1 sequence (P53894 251-756): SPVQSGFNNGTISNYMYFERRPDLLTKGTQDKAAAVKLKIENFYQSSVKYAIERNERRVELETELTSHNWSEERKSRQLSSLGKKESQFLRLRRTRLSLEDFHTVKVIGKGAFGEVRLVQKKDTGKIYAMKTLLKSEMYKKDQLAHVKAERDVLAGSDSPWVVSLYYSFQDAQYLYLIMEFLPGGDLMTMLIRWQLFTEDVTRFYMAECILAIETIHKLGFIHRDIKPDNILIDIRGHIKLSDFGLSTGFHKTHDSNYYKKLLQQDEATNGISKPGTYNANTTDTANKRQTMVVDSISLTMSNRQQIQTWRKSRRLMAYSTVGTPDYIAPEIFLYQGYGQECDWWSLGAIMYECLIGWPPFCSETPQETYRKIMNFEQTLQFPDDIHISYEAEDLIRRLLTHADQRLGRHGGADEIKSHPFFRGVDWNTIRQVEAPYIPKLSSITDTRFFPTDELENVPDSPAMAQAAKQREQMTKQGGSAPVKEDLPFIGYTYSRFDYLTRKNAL
T1 sequence (P43563 1-287 partner): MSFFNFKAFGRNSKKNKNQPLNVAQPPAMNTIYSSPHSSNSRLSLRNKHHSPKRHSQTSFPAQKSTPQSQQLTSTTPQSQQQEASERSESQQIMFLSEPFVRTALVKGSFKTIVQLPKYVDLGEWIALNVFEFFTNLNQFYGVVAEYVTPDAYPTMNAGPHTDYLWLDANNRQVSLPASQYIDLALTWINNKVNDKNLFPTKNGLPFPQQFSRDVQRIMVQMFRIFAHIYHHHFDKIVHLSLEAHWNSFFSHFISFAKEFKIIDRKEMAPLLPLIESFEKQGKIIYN
Method: His6-Cbk1^251–756 was co-expressed with GST-Mob2 (full length or 45–287). Cbk1 kinase domain alone (352–756 or 352–692) was expressed as GST-Cbk1-His6. All constructs were bacterially expressed and purified on a Ni-NTA resin (Qiagen) followed by glutathione Sepharose beads (GE Biosciences). For crystallization, tags were cleaved with TEV protease followed by cation exchange chromatography on a Resource S column. All Cbk1 preparations were subsequently dialyzed into Cbk1 buffer (20 mM Tris-HCl, 150 mM NaCl, 2 mM DTT [pH 8.0]).
For FP-based binding affinity measurements, different docking peptides (pepAce2: GSGSIIVTTNSANGGYQFP; pepSSD1: TTEQSDFKFP; pepHM: IGYTYSRFDY; pepHM-P: IGYpTYSRFDY) were N-terminally (pepAce2 and pepSSD1) or C-terminally (pepHM and pepHM-P) labeled with carboxyfluorescein (CF) fluorescent dyes.
Change in the FP signal in direct binding affinity measurements was monitored as a function of increasing concentration of protein with a Synergy H4 (BioTek Instruments) plate reader in 384-well plates. The labeled peptides were at 20 nM in 20 mM Tris (pH 8.0), 100 mM NaCl, 0.05% Brij35P, 2 mM DTT. The resulting binding isotherms were fit to a quadratic binding equation. The affinity of the unlabeled peptides was measured in steady-state competition experiments: 20 nM labeled reporter was mixed with protein samples in a concentration to achieve ~60%–80% complex formation. Subsequently, increasing amounts of unlabeled peptide were added, and the FP signal was measured as described earlier for direct titration experiments. The Kd for each unlabeled peptide interaction was determined by fitting the data to a competition binding equation. Titration experiments were carried out in triplicate, and the average FP signal was used for fitting the data with OriginPro 7.

[3] = test system: budding yeast cell separation (RAM network output); experiment: Cell separation assay (cells per group); format: cell-based, Saccharomyces cerevisiae; conditions: cbk1-as2 strain
Method: For cell separation assays, ckb1Δ, ace2ΔCBK1, or ace2Δcbk1-as2 cells were transformed with empty, WT, or mutant vector under control of the ADH1 promoter. Cells were grown to log-phase, briefly sonicated, and mounted on slides to count cell group size. Histograms represent mean ± standard deviation of three independent cultures, with >100 groups counted for each. For quantification of transcriptional output, RNA was isolated from log-phase cultures and analyzed by real-time PCR. Bar graphs represent mean ± standard deviation of three independent cultures. For growth assays, WT CBK1 or cbk1-as2 strains were transformed with vectors containing Ssd1 (WT and mutants) expressed from a galactose-inducible promoter. Stationary phase cells grown in glucose were diluted to OD600 = 0.2. Five-fold serial dilutions (5^−2, 5^−3, 5^−4, 5^−5) were plated in the presence of glucose or galactose, then incubated for 3 d at 24°C.
(§1) Supplementary file pbio.1002146.s001.xlsx: S1 Data Measurements of the distances between the centers of mass of indicated Cbk1 and Mob2 regions over the course of the molecular dynamics simulations described in Figs 3 and S4. This file also contains data quantifying the effectiveness of cell separation in different genetic backgrounds. In these experiments we counted the number of cells present in clumps of specific sizes in random microscope fields, and then binned these groups into clump size ranges: 1–4 cells, 5–10 cells, 11–20 cells, and ≥21 cells per clump. We quantified this for the indicated allele combinations, scoring three independent isolates of each allele combination. The number of cell bodies present in clumps of different sizes is a function of the efficiency of cell separation. (XLSX) Click here for additional data file.
as §1, with “pbio.1002146.s004.xlsx: S4” for “pbio.1002146.s001.xlsx: S1”, “Data” for “Measurements of the distances between the centers of mass of indicated Cbk1 and Mob2 regions over the course of the molecular dynamics simulations described in Figs 3 and S4. This file also contains data”, “1–2 cells, 3–4” for “1–4”

[4] = test system: budding yeast cell separation (RAM network output); experiment: Cell separation assay (cells per group); format: cell-based, Saccharomyces cerevisiae; conditions: cbk1-as2 strain; remark: listed apart in the source
[5] = target: Cbk1(W444A)–Mob2 complex (S. cerevisiae, UniProt P53894 251-756; P43563 1-287, W444A); experiment: FP
[6] = target: T2, Cbk1^251–756–Mob2 complex (S. cerevisiae, UniProt P53894 251-756; P43563 1-287); experiment: FP
T2 chain 1: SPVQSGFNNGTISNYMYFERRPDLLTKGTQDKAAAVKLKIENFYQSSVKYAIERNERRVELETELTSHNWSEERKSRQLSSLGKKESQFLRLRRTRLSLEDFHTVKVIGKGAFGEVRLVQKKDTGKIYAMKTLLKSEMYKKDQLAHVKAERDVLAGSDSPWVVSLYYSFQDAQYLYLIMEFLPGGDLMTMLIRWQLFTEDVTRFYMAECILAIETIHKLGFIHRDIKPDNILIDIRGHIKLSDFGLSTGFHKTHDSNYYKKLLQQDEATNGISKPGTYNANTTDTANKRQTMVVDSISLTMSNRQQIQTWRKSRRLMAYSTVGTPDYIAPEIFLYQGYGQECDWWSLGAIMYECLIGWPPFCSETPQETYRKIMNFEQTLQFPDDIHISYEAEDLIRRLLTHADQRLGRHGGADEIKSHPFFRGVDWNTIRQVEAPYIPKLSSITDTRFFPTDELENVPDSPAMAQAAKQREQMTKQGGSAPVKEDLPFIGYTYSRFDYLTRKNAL
T2 chain 2: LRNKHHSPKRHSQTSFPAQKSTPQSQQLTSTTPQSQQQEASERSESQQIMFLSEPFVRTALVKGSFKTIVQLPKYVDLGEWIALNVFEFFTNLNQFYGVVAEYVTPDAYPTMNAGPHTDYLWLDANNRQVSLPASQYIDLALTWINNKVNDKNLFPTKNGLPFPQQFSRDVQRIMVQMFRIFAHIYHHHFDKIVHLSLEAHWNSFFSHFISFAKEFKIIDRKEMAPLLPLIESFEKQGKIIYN

[7] = target: Cbk1(F699A)–Mob2 complex (S. cerevisiae, UniProt P53894 251-756; P43563 1-287, F699A); experiment: FP

Cbk1(W444A)–Mob2 complex, sequence (P53894 251-756 W444A, chain 1 of 2, one chain of several): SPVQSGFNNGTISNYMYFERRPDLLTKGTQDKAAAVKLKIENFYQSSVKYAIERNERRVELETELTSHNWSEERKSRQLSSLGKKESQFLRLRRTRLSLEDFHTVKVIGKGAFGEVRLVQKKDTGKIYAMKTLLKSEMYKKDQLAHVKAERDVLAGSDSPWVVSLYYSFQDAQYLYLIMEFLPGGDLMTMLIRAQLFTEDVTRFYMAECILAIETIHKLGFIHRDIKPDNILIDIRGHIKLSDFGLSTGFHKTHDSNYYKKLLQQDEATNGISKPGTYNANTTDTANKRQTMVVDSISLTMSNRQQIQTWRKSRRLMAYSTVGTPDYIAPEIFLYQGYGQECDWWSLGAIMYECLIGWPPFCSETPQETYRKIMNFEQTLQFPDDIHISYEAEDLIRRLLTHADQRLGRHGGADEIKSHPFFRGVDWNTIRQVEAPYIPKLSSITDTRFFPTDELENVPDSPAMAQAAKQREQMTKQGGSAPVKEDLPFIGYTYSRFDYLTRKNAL

15-amino-acid peptide from Ace2: 15-amino-acid peptide from Ace2 with the sequence YQFP at its C-terminal end (IIVTTNSANGGYQFP; also: MBP fusion, end not given here)
association with Cbk1–Mob2 [1]: associates with the Cbk1–Mob2 complex

C[C@@H](O)[C@H](N)C(=O)N[C@H](C(=O)N[C@@H](CCC(=O)O)C(=O)N[C@@H](CCC(N)=O)C(=O)N[C@@H](CO)C(=O)N[C@@H](CC(=O)O)C(=O)N[C@@H](Cc1ccccc1)C(=O)N[C@@H](CCCCN)C(=O)N[C@@H](Cc1ccccc1)C(=O)N1CCC[C@H]1C(=O)O)[C@@H](C)O [pepSSD1] (H-TTEQSDFKFP-OH)
Kd [2]: 6 µM

B1: Ace2 WT (protein, UniProt P21192 1-770, looked up)
Metallothionein expression …: MDNVVDPWYINPSGFAKDTQDEEYVQHHDNVNPTIPPPDNYILNNENDDGLDNLLGMDYYNIDDLLTQELRDLDIPLVPSPKTGDGSSDKKNIDRTWNLGDENNKVSHYSKKSMSSHKRGLSGTAIFGFLGHNKTLSISSLQQSILNMSKDPQPMELINELGNHNTVKNNNDDFDHIRENDGENSYLSQVLLKQQEELRIALEKQKEVNEKLEKQLRDNQIQQEKLRKVLEEQEEVAQKLVSGATNSNSKPGSPVILKTPAMQNGRMKDNAIIVTTNSANGGYQFPPPTLISPRMSNTSINGSPSRKYHRQRYPNKSPESNGLNLFSSNSGYLRDSELLSFSPQNYNLNLDGLTYNDHNNTSDKNNNDKKNSTGDNIFRLFEKTSPGGLSISPRINGNSLRSPFLVGTDKSRDDRYAAGTFTPRTQLSPIHKKRESVVSTVSTISQLQDDTEPIHMRNTQNPTLRNANALASSSVLPPIPGSSNNTPIKNSLPQKHVFQHTPVKAPPKNGSNLAPLLNAPDLTDHQLEIKTPIRNNSHCEVESYPQVPPVTHDIHKSPTLHSTSPLPDEIIPRTTPMKITKKPTTLPPGTIDQYVKELPDKLFECLYPNCNKVFKRRYNIRSHIQTHLQDRPYSCDFPGCTKAFVRNHDLIRHKISHNAKKYICPCGKRFNREDALMVHRSRMICTGGKKLEHSINKKLTSPKKSLLDSPHDTSPVKETIARDKDGSVLMKMEEQLRDDMRKHGLLDPPPSTAAHEQNSNRTLSNETDAL
Cells per group, bin 2 (1-2), % ([3]; Isolate 1): 76.6187% | Cells per group, bin 10 (5-10), % ([3]; Isolate 1): 5.7554% | Cells per group, bin 20 (11-20), % ([3]; Isolate 1): 0.7194% | Cells per group, bin More (20+), % ([3]; Isolate 1): 0% | Cells per group, bin 10 (5-10), Frequency ([3]; Isolate 1, count): 16 | Cells per group, bin 20 (11-20), Frequency ([3]; Isolate 1, count): 2 | Cells per group, bin More (20+), Frequency ([3]; Isolate 1, count): 0 | Cells per group, bin 2 (1-2), % ([3]; Isolate 2): 92.7273% | Cells per group, bin 4 (3-4), % ([3]; Isolate 2): 6.545% | Cells per group, bin 10 (5-10), % ([3]; Isolate 2): 0.7273% | Cells per group, bin 20 (11-20), % ([3]; Isolate 2): 0% | Cells per group, bin More (20+), % ([3]; Isolate 2): 0% | Cells per group, bin 2 (1-2), Frequency ([3]; Isolate 2, count): 255 | Cells per group, bin 10 (5-10), Frequency ([3]; Isolate 2, count): 2 | Cells per group, bin 20 (11-20), Frequency ([3]; Isolate 2, count): 0 | Cells per group, bin More (20+), Frequency ([3]; Isolate 2, count): 0 | Cells per group, bin 4 (3-4), % ([3]; Isolate 3): 1.579% | Cells per group, bin 10 (5-10), % ([3]; Isolate 3): 0.5263% | Cells per group, bin 20 (11-20), % ([3]; Isolate 3): 0.5263% | Cells per group, bin More (20+), % ([3]; Isolate 3): 0% | Cells per group, bin 2 (1-2), Frequency ([3]; Isolate 3, count): 185 | Cells per group, bin 4 (3-4), Frequency ([3]; Isolate 3, count): 3 | Cells per group, bin 10 (5-10), Frequency ([3]; Isolate 3, count): 1 | Cells per group, bin 20 (11-20), Frequency ([3]; Isolate 3, count): 1 | Cells per group, bin More (20+), Frequency ([3]; Isolate 3, count): 0 | Cells per group, 1-2, Mean ([3]; mean of 3 isolates): 88.9048% | Cells per group, 3-4, Mean ([3]; mean of 3 isolates): 8.344% | Cells per group, 5-10, Mean ([3]; mean of 3 isolates): 2.336% | Cells per group, 11-20, Mean ([3]; mean of 3 isolates): 0.4152% | Cells per group, 20+, Mean ([3]; mean of 3 isolates): 0% | Cells per group, bin 4 (3-4), % ([4]; Isolate 1): 16.9065% | Cells per group, bin 2 (1-2), Frequency ([4]; Isolate 1, count): 213 | Cells per group, bin 4 (3-4), Frequency ([4]; Isolate 1, count): 47 | Cells per group, bin 4 (3-4), Frequency ([4]; Isolate 2, count): 18 | Cells per group, bin 2 (1-2), % ([4]; Isolate 3): 97.3684%

B2: pepAce2, carboxyfluorescein-labelled (peptide)
peptide: carboxyfluorescein-GSGSIIVTTNSANGGYQFP
Kd [5]: 19 µM | Kd [6]: 5 µM | Kd [7]: 5 µM
